Experimental data reported in patent US20180030151A1 (MOGAM INSTITUTE FOR BIOMEDICAL RESEARCH, published 2018).
Read-outs that look alike come from different tables or passages of the source.

Assays:
[1] = target: T1, recombinant human TFPI (tissue factor pathway inhibitor) (human, UniProt P10646 29-304); test: cell-based or functional assay
[2] = target: T1, recombinant human TFPI (tissue factor …); test: cell-based or functional assay; remark: listed apart in the source
[3] = target: T1, recombinant human TFPI (tissue factor …); test: SPR, Biacore T-200; TFPI immobilised on CM5 chip, IgG as analyte
Procedure: 10 mM of glycine-HCl (pH 1.5) was run at a flow rate of 30 μL/min for 30 seconds, thereby inducing the dissociation of the antibody associated with the TFPI. The affinity in terms of kinetic rate constants (Kₒₙ and Koff) and equilibrium dissociation constant

[4] = target: T1, recombinant human TFPI (tissue factor …); test: cell-based or functional assay; remark: listed apart in the source
[5] = target: T1, recombinant human TFPI (tissue factor …); test: cell-based or functional assay; remark: listed apart in the source
[6] = target: T1, recombinant human TFPI (tissue factor …); test: cell-based or functional assay; remark: listed apart in the source
[7] = target: T1, recombinant human TFPI (tissue factor …); test: cell-based or functional assay; remark: listed apart in the source
[8] = target: T1, recombinant human TFPI (tissue factor …); test: cell-based or functional assay; remark: listed apart in the source
[9] = target: T1, recombinant human TFPI (tissue factor …); test: cell-based or functional assay; remark: listed apart in the source
[10] = target: T1, recombinant human TFPI (tissue factor …); test: cell-based or functional assay; remark: listed apart in the source
[11] = target: T1, recombinant human TFPI (tissue factor …); test: cell-based or functional assay; remark: listed apart in the source
[12] = target: T1, recombinant human TFPI (tissue factor …); test: cell-based or functional assay; remark: listed apart in the source
[13] = target: T1, recombinant human TFPI (tissue factor …); test: cell-based or functional assay; remark: listed apart in the source
[14] = target: T1, recombinant human TFPI (tissue factor …); test: cell-based or functional assay; remark: listed apart in the source
[15] = target: T1, recombinant human TFPI (tissue factor …); test: cell-based or functional assay; remark: listed apart in the source
[16] = target: T1, recombinant human TFPI (tissue factor …); test: cell-based or functional assay; remark: listed apart in the source

B1: clone T417 (antibody, V domains shown)
VH: EVHLVESGGDLVKPGGSLKLSCAASGFTFSSYAMSWVRQTPDKRLEWVATITTGGSYTYYPDSVKGRFTISRDNAKNTLYLQMSSLKSEDTAMYYCARQDGNFLMDYWGQGTTVTVSS
VL: not shown
notes: also called T417 chimeric antibody
[1]
  FXa assay % of FXa alone, 2.5 nM Ab, 10 nM TFPI: 6.9%
  FXa assay % of FXa alone, 5 nM Ab, 10 nM TFPI: 20%
  FXa assay % of FXa alone, 10 nM Ab, 10 nM TFPI: 45.4%
  FXa assay % of FXa alone, 20 nM Ab, 10 nM TFPI: 72.9%
  FXa assay OD, 2.5 nM Ab, 10 nM TFPI: 0.057
  FXa assay OD, 5 nM Ab, 10 nM TFPI: 0.165
  FXa assay OD, 10 nM Ab, 10 nM TFPI: 0.375
  FXa assay OD, 20 nM Ab, 10 nM TFPI: 0.603
[2]
  A405, TF/FVIIa/FX complex assay, Ab 1.56 nM: 0.145
  A405, TF/FVIIa/FX complex assay, Ab 3.13 nM: 0.16
  A405, TF/FVIIa/FX complex assay, Ab 6.25 nM: 0.186
  A405, TF/FVIIa/FX complex assay, Ab 12.5 nM: 0.251
  A405, TF/FVIIa/FX complex assay, Ab 25 nM: 0.88
  A405, TF/FVIIa/FX complex assay, Ab 50 nM: 0.908
  A405, TF/FVIIa/FX complex assay, Ab 100 nM: 0.945
[3]
  Kd: 6.7 pM
[4]
  A405, TF/FVIIa/FX complex assay (FX 5 nM), Ab 1.56 nM: 0.045
  A405, TF/FVIIa/FX complex assay (FX 5 nM), Ab 3.13 nM: 0.049
  A405, TF/FVIIa/FX complex assay (FX 5 nM), Ab 6.25 nM: 0.05
  A405, TF/FVIIa/FX complex assay (FX 5 nM), Ab 12.5 nM: 0.072
  A405, TF/FVIIa/FX complex assay (FX 5 nM), Ab 25 nM: 0.154
  A405, TF/FVIIa/FX complex assay (FX 5 nM), Ab 50 nM: 0.509
  A405, TF/FVIIa/FX complex assay (FX 5 nM), Ab 100 nM: 0.745
[5]
  A405, TF/FVIIa/FX complex assay, Ab 1.56 nM: 0.16
  A405, TF/FVIIa/FX complex assay, Ab 3.13 nM: 0.158
  A405, TF/FVIIa/FX complex assay, Ab 6.25 nM: 0.183
  A405, TF/FVIIa/FX complex assay, Ab 12.5 nM: 0.253
  A405, TF/FVIIa/FX complex assay, Ab 25 nM: 0.894
  A405, TF/FVIIa/FX complex assay, Ab 50 nM: 0.938
  A405, TF/FVIIa/FX complex assay, Ab 100 nM: 0.931
[6]
  FXa assay % of FXa alone, 2.5 nM Ab, 10 nM TFPI: 9.8%
  FXa assay % of FXa alone, 5 nM Ab, 10 nM TFPI: 52.1%
  FXa assay % of FXa alone, 10 nM Ab, 10 nM TFPI: 69.4%
  FXa assay % of FXa alone, 20 nM Ab, 10 nM TFPI: 81.8%
  FXa assay OD, 2.5 nM Ab, 10 nM TFPI: 0.079
  FXa assay OD, 5 nM Ab, 10 nM TFPI: 0.42
  FXa assay OD, 10 nM Ab, 10 nM TFPI: 0.56
  FXa assay OD, 20 nM Ab, 10 nM TFPI: 0.66
[7]
  FXa assay % of FXa alone, 2.5 nM Ab, 10 nM TFPI: 9.2%
  FXa assay % of FXa alone, 5 nM Ab, 10 nM TFPI: 43.8%
  FXa assay % of FXa alone, 10 nM Ab, 10 nM TFPI: 75.2%
  FXa assay % of FXa alone, 20 nM Ab, 10 nM TFPI: 88.6%
  FXa assay OD, 2.5 nM Ab, 10 nM TFPI: 0.071
  FXa assay OD, 5 nM Ab, 10 nM TFPI: 0.337
  FXa assay OD, 10 nM Ab, 10 nM TFPI: 0.579
  FXa assay OD, 20 nM Ab, 10 nM TFPI: 0.682
[8]
  % of Normalized, TF/FVIIa/FX complex assay, Ab 1.56 nM: 15.2%
  % of Normalized, TF/FVIIa/FX complex assay, Ab 3.13 nM: 16.8%
  % of Normalized, TF/FVIIa/FX complex assay, Ab 6.25 nM: 19.5%
  % of Normalized, TF/FVIIa/FX complex assay, Ab 12.5 nM: 26.3%
  % of Normalized, TF/FVIIa/FX complex assay, Ab 25 nM: 92.2%
  % of Normalized, TF/FVIIa/FX complex assay, Ab 50 nM: 95.1%
  % of Normalized, TF/FVIIa/FX complex assay, Ab 100 nM: 99%
[9]
  FXa assay % of FXa alone, 2.5 nM Ab, 10 nM TFPI: 7.2%
  FXa assay % of FXa alone, 5 nM Ab, 10 nM TFPI: 10.2%
  FXa assay % of FXa alone, 10 nM Ab, 10 nM TFPI: 43.9%
  FXa assay % of FXa alone, 20 nM Ab, 10 nM TFPI: 66.9%
  FXa assay OD, 2.5 nM Ab, 10 nM TFPI: 0.0855
  FXa assay OD, 5 nM Ab, 10 nM TFPI: 0.122
  FXa assay OD, 10 nM Ab, 10 nM TFPI: 0.522
  FXa assay OD, 20 nM Ab, 10 nM TFPI: 0.797
[10]
  TFPI inhibitory activity, FXa activity assay, Ab 10 nM: 78.4%
  effect of inhibiting TFPI, FXa activity assay, Ab 10 nM: 72%
[11]
  FXa assay % of FXa alone, 2.5 nM Ab, 10 nM TFPI: 5.4%
  FXa assay % of FXa alone, 5 nM Ab, 10 nM TFPI: 8%
  FXa assay % of FXa alone, 10 nM Ab, 10 nM TFPI: 30.7%
  FXa assay % of FXa alone, 20 nM Ab, 10 nM TFPI: 58.5%
  FXa assay OD, 2.5 nM Ab, 10 nM TFPI: 0.041
  FXa assay OD, 5 nM Ab, 10 nM TFPI: 0.061
  FXa assay OD, 10 nM Ab, 10 nM TFPI: 0.234
  FXa assay OD, 20 nM Ab, 10 nM TFPI: 0.446
[12]
  FXa assay % of FXa alone, 2.5 nM Ab, 10 nM TFPI: 7.7%
  FXa assay % of FXa alone, 5 nM Ab, 10 nM TFPI: 29.9%
  FXa assay % of FXa alone, 10 nM Ab, 10 nM TFPI: 56.8%
  FXa assay % of FXa alone, 20 nM Ab, 10 nM TFPI: 75.6%
  FXa assay OD, 2.5 nM Ab, 10 nM TFPI: 0.0625
  FXa assay OD, 5 nM Ab, 10 nM TFPI: 0.242
  FXa assay OD, 10 nM Ab, 10 nM TFPI: 0.461
  FXa assay OD, 20 nM Ab, 10 nM TFPI: 0.614
[13]
  TF/FVIIa/FXa assay % of 0 nM TFPI, 12.5 nM Ab, 50 nM TFPI: 21.2%
  TF/FVIIa/FXa assay % of 0 nM TFPI, 50 nM Ab, 50 nM TFPI: 115%
  TF/FVIIa/FXa assay % of 0 nM TFPI, 100 nM Ab, 50 nM TFPI: 113%
  TF/FVIIa/FXa assay OD, 12.5 nM Ab, 50 nM TFPI: 0.17 OD
  TF/FVIIa/FXa assay OD, 25 nM Ab, 50 nM TFPI: 0.696 OD
  TF/FVIIa/FXa assay OD, 50 nM Ab, 50 nM TFPI: 0.924 OD
  TF/FVIIa/FXa assay OD, 100 nM Ab, 50 nM TFPI: 0.907 OD
[14]
  A405, TF/FVIIa/FX complex assay, Ab 1.56 nM: 0.045
  A405, TF/FVIIa/FX complex assay, Ab 3.13 nM: 0.047
  A405, TF/FVIIa/FX complex assay, Ab 6.25 nM: 0.05
  A405, TF/FVIIa/FX complex assay, Ab 12.5 nM: 0.074
  A405, TF/FVIIa/FX complex assay, Ab 25 nM: 0.273
  A405, TF/FVIIa/FX complex assay, Ab 50 nM: 0.6
  A405, TF/FVIIa/FX complex assay, Ab 100 nM: 0.81
[15]
  FXa assay % of FXa alone, 2.5 nM Ab, 10 nM TFPI: 17.6%
  FXa assay % of FXa alone, 5 nM Ab, 10 nM TFPI: 75.9%
  FXa assay % of FXa alone, 10 nM Ab, 10 nM TFPI: 85.2%
  FXa assay % of FXa alone, 20 nM Ab, 10 nM TFPI: 93.3%
  FXa assay OD, 2.5 nM Ab, 10 nM TFPI: 0.127
  FXa assay OD, 5 nM Ab, 10 nM TFPI: 0.546
  FXa assay OD, 10 nM Ab, 10 nM TFPI: 0.613
  FXa assay OD, 20 nM Ab, 10 nM TFPI: 0.67
[16]
  FXa assay % of FXa alone, 2.5 nM Ab, 10 nM TFPI: 6.9%
  FXa assay % of FXa alone, 5 nM Ab, 10 nM TFPI: 18.8%
  FXa assay % of FXa alone, 10 nM Ab, 10 nM TFPI: 55.2%
  FXa assay % of FXa alone, 20 nM Ab, 10 nM TFPI: 78%
  FXa assay OD, 2.5 nM Ab, 10 nM TFPI: 0.0335
  FXa assay OD, 5 nM Ab, 10 nM TFPI: 0.091
  FXa assay OD, 10 nM Ab, 10 nM TFPI: 0.267
  FXa assay OD, 20 nM Ab, 10 nM TFPI: 0.378
